Reference: publication PMC9569990 (International Journal of Molecular Sciences, 2022)

T1: Interleukin-35 (human, UniProt P29459 23-219; Q14213 21-229)
T1 construct: the chain used for the SCOP family assignment; also called IL-35; source: bought: PeproTech (source HEK293)
T1 sequence (looked up) 1: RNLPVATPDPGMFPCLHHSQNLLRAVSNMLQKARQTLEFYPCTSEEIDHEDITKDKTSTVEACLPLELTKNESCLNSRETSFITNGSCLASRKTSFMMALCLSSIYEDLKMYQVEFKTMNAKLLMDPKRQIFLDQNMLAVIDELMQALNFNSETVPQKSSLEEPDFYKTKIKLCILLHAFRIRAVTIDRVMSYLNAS
T1 sequence (looked up) 2: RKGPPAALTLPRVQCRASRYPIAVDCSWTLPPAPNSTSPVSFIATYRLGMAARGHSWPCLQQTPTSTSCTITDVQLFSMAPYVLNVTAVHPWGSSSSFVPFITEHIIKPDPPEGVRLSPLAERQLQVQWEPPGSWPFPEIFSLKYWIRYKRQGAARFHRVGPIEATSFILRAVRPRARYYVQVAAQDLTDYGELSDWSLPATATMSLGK

T2: Interleukin-26 (human, UniProt Q9NPH9 22-171)
T2 construct: Interleukin-26, human, UniProt Q9NPH9; see the manufacturer's catalogue number; also called IL-26; source: bought: R&D Systems (source E. coli)
T2 sequence (looked up): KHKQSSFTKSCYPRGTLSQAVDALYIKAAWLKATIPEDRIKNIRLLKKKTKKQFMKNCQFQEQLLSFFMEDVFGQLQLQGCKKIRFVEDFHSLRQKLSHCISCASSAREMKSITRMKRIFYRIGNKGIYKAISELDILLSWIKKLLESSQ

T3: Interleukin-31 (human, UniProt Q6EBC2 24-164)
T3 construct: Interleukin-31, human, UniProt Q6EBC2; see the manufacturer's catalogue number; also called IL-31; source: bought: PeproTech (source E. coli)
T3 sequence (looked up): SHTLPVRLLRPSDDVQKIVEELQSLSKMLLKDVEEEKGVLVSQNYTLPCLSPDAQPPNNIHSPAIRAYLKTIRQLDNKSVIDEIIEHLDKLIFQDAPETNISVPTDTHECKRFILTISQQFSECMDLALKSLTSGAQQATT

T4: Interleukin-20 (human, UniProt Q9NYY1 25-176)
T4 construct: Interleukin-20, human, UniProt Q9NYY1; see the manufacturer's catalogue number; also called IL-20; source: bought: PeproTech (source E. coli)
T4 sequence (looked up): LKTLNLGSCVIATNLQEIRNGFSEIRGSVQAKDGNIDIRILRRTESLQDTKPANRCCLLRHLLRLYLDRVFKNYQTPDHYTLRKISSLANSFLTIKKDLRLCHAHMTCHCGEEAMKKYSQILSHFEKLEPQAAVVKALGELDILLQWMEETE

B1: Human S100P mutant Δ42–47 (lacks PGFLQS sequence in the 'hinge') (natural protein)
chain: MTELETAMGMIIDVFSRYSGSEGSTQTLTKGELKVLMEKELGKDKDAVDKLLKDLDANGDAQVDFSEFIVFVAAITSACHKYFEKAGLK
notes: S100P protein, human, recombinant, with residues 42-47 (PGFLQS) deleted; source: E. coli, prepared as previously described [28]
B2: Human S100P protein (recombinant, Ca^2+-loaded) (natural protein)
chain: MTELETAMGMIIDVFSRYSGSEGSTQTLTKGELKVLMEKELPGFLQSGKDKDAVDKLLKDLDANGDAQVDFSEFIVFVAAITSACHKYFEKAGLK
notes: S100P protein, human, recombinant; probably the whole 95-residue protein (surmise); also called wild-type S100P; WT S100P; source: E. coli, prepared as previously described [28]
B3: Human S100P mutant F89A (natural protein)
chain: MTELETAMGMIIDVFSRYSGSEGSTQTLTKGELKVLMEKELPGFLQSGKDKDAVDKLLKDLDANGDAQVDFSEFIVFVAAITSACHKYAEKAGLK
notes: S100P protein, human, recombinant, with F89A; source: E. coli, prepared as previously described [28]

Key:
Assay in all cases: SPR; cytokine immobilised on ProteOn GLH sensor chip by amine coupling (9,000-14,000 RU); S100P (wild type or mutant) as analyte, 62 nM-16 µM; 25 °C; 10 mM HEPES, 150 mM NaCl, 1 mM CaCl2, 0.05% TWEEN 20, pH 7.4; heterogeneous ligand model (two ligand populations), one-site model for IL-13; values averaged over analyte concentrations (n = 3-5)
Details in all cases: both partners purified
Interleukin-21 = target: T5, Interleukin-21 (human, UniProt Q9HBE4 25-162)
T5 construct: Interleukin-21, human, UniProt Q9HBE4; see the manufacturer's catalogue number; also called IL-21; source: bought: PeproTech (source E. coli)
T5 sequence (Q9HBE4 25-162): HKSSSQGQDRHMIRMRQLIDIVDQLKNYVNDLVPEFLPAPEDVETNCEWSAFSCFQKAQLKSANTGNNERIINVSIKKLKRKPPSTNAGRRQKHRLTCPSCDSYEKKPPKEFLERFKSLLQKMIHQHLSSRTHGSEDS

Interleukin-35 = target: T1, Interleukin-35
Interleukin-26 = target: T2, Interleukin-26
Interleukin-31 = target: T3, Interleukin-31
Interleukin-20 = target: T4, Interleukin-20
Interleukin-9 = target: T6, Interleukin-9 (human, UniProt P15248 19-144)
T6 construct: Interleukin-9, human, UniProt P15248; see the manufacturer's catalogue number; also called IL-9; source: bought: PeproTech (source E. coli)
T6 sequence (P15248 19-144): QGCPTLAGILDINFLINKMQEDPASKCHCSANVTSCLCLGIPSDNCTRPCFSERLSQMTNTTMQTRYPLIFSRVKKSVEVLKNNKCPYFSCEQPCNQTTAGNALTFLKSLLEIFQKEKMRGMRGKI

Row | Binder | Kd (Interleukin-21) | Kd (Interleukin-35) | Kd (Interleukin-26) | Kd1 (heterogeneous ligand model, population 1) (Interleukin-31) | Kd2 (heterogeneous ligand model, population 2) (Interleukin-31) | kd1 (heterogeneous ligand model, population 1) (Interleukin-31) | kd2 (heterogeneous ligand model, population 2) (Interleukin-31) | Kd1 (heterogeneous ligand model, population 1) (Interleukin-20) | Kd2 (heterogeneous ligand model, population 2) (Interleukin-20) | kd1 (heterogeneous ligand model, population 1) (Interleukin-20) | kd2 (heterogeneous ligand model, population 2) (Interleukin-20) | Kd1 (heterogeneous ligand model, population 1) (Interleukin-9) | Kd2 (heterogeneous ligand model, population 2) (Interleukin-9) | kd1 (heterogeneous ligand model, population 1) (Interleukin-9) | kd2 (heterogeneous ligand model, population 2) (Interleukin-9) | Kd1 (heterogeneous ligand model, population 1) (Interleukin-21) | Kd2 (heterogeneous ligand model, population 2; column head printed as Kd1) (Interleukin-21)
1 | B1 | > 100 µM | > 10 µM | > 100 µM | – | – | – | – | – | – | – | – | – | – | – | – | – | –
2 | B2 | – | – | – | 25.2 nM | 202 nM | 0.00023 s⁻¹ | 0.0583 s⁻¹ | 403 nM | 537 nM | 0.000442 s⁻¹ | 0.0246 s⁻¹ | 34.7 nM | 136 nM | 0.000531 s⁻¹ | 0.017 s⁻¹ | – | –
3 | B3 | – | > 100 µM | > 100 µM | – | – | – | – | – | – | – | – | – | – | – | – | 401 nM | 950 nM
